Results published in patent US20140087995A1 (published 2014).
Numbered stars: 1 amine (or outer) side, 2 acyl side, 3 side chain; on linkers, the order of the positions; unused ones are H or OH. Bridge positions count the residues as written; N and C are the ends. Side chains are listed from the residue outwards. Ends that are not written are not given here. * marks the point of attachment. C20 diacid = O=C(O)CCCCCCCCCCCCCCCCCCC(=O)*; γGlu = O=C(O)[C@H](CCC(=O)[*:2])N[*:1]

T1: human amylin receptor (amylin 3(a) receptor: human calcitonin receptor with RAMP-3) (human, UniProt P30988 25-474; O60896 24-148)
T1 construct: whole, on cells; also called hAmylin-R; hAmylinR
T1 sequence (looked up) 1: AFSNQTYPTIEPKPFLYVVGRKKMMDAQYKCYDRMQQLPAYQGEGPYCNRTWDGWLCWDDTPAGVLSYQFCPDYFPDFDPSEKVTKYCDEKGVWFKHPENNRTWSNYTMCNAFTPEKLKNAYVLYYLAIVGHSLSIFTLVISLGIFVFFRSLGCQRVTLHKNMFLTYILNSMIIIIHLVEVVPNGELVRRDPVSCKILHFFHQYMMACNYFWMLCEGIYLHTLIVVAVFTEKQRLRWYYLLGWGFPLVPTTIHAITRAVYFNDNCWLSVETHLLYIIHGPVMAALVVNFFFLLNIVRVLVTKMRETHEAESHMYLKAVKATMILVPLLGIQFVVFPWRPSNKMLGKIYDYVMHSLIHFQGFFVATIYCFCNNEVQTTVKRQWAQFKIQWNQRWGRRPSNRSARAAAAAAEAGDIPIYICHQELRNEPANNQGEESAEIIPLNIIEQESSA
T1 sequence (looked up) 2: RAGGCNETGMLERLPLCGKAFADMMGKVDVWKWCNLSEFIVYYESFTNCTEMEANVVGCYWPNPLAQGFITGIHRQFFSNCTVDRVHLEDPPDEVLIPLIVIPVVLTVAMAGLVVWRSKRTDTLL


target: T1, human amylin receptor (amylin 3(a) …); assay: SPA displacement of 125I-rat amylin, hAmylin 3(a) receptor membranes
Procedure, shortened: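 SPA beads with BHK Amylin 3(a)/CRE-luc cell membranes (35 ng/μL final) in 50 mM Hepes pH 7.4, 1 mM CaCl2, 5 mM MgCl₂, 0.1% OA, 0.02% Tween20.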

Row | IC50 | Binder
1 | 1.13 nM | K([γGlu-γGlu-C20 diacid])CNTATCATQRLADFLRHSSNPFGAPLSSTNVGSDTY-NH2 (disulfide 2-7; N-terminus assumed; SMILES CC(C)C[C@H](NC(=O)[C@H](CCCNC(=N)N)NC(=O)[C@H](CCC(N)=O)NC(=O)[C@@H](NC(=O)[C@H](C)NC(=O)[C@@H]1CSSC[C@H](NC(=O)[C@@H](N)CCCCNC(=O)CC[C@H](NC(=O)CC[C@H](NC(=O)CCCCCCCCCCCCCCCCCCC(=O)O)C(=O)O)C(=O)O)C(=O)N[C@@H](CC(N)=O)C(=O)N[C@@H]([C@@H](C)O)C(=O)N[C@@H](C)C(=O)N[C@@H]([C@@H](C)O)C(=O)N1)[C@@H](C)O)C(=O)N[C@@H](C)C(=O)N[C@@H](CC(=O)O)C(=O)N[C@@H](Cc1ccccc1)C(=O)N[C@@H](CC(C)C)C(=O)N[C@@H](CCCNC(=N)N)C(=O)N[C@@H](Cc1c[nH]cn1)C(=O)N[C@@H](CO)C(=O)N[C@@H](CO)C(=O)N[C@@H](CC(N)=O)C(=O)N1CCC[C@H]1C(=O)N[C@@H](Cc1ccccc1)C(=O)NCC(=O)N[C@@H](C)C(=O)N1CCC[C@H]1C(=O)N[C@@H](CC(C)C)C(=O)N[C@@H](CO)C(=O)N[C@@H](CO)C(=O)N[C@H](C(=O)N[C@@H](CC(N)=O)C(=O)N[C@H](C(=O)NCC(=O)N[C@@H](CO)C(=O)N[C@@H](CC(=O)O)C(=O)N[C@H](C(=O)N[C@@H](Cc1ccc(O)cc1)C(N)=O)[C@@H](C)O)C(C)C)[C@@H](C)O, also called compound 3)
2 | 0.179 nM | K([γGlu-γGlu-C20 diacid])CNTATCATQRLAHFLRHSSPNFGAIPSSTNVGSNTY-NH2 (disulfide 2-7; N-terminus assumed; SMILES CC[C@H](C)[C@H](NC(=O)[C@H](C)NC(=O)CNC(=O)[C@H](Cc1ccccc1)NC(=O)[C@H](CC(N)=O)NC(=O)[C@@H]1CCCN1C(=O)[C@H](CO)NC(=O)[C@H](CO)NC(=O)[C@H](Cc1c[nH]cn1)NC(=O)[C@H](CCCNC(=N)N)NC(=O)[C@H](CC(C)C)NC(=O)[C@H](Cc1ccccc1)NC(=O)[C@H](Cc1c[nH]cn1)NC(=O)[C@H](C)NC(=O)[C@H](CC(C)C)NC(=O)[C@H](CCCNC(=N)N)NC(=O)[C@H](CCC(N)=O)NC(=O)[C@@H](NC(=O)[C@H](C)NC(=O)[C@@H]1CSSC[C@H](NC(=O)[C@@H](N)CCCCNC(=O)CC[C@H](NC(=O)CC[C@H](NC(=O)CCCCCCCCCCCCCCCCCCC(=O)O)C(=O)O)C(=O)O)C(=O)N[C@@H](CC(N)=O)C(=O)N[C@@H]([C@@H](C)O)C(=O)N[C@@H](C)C(=O)N[C@@H]([C@@H](C)O)C(=O)N1)[C@@H](C)O)C(=O)N1CCC[C@H]1C(=O)N[C@@H](CO)C(=O)N[C@@H](CO)C(=O)N[C@H](C(=O)N[C@@H](CC(N)=O)C(=O)N[C@H](C(=O)NCC(=O)N[C@@H](CO)C(=O)N[C@@H](CC(N)=O)C(=O)N[C@H](C(=O)N[C@@H](Cc1ccc(O)cc1)C(N)=O)[C@@H](C)O)C(C)C)[C@@H](C)O, also called 92; compound 92)
3 | 0.264 nM | K([γGlu-γGlu-C20 diacid])CNTATCATQRLAEFLRHSSPNFGAIPSSTNVGSNTP-NH2 (disulfide 2-7; N-terminus assumed; SMILES CC[C@H](C)[C@H](NC(=O)[C@H](C)NC(=O)CNC(=O)[C@H](Cc1ccccc1)NC(=O)[C@H](CC(N)=O)NC(=O)[C@@H]1CCCN1C(=O)[C@H](CO)NC(=O)[C@H](CO)NC(=O)[C@H](Cc1c[nH]cn1)NC(=O)[C@H](CCCNC(=N)N)NC(=O)[C@H](CC(C)C)NC(=O)[C@H](Cc1ccccc1)NC(=O)[C@H](CCC(=O)O)NC(=O)[C@H](C)NC(=O)[C@H](CC(C)C)NC(=O)[C@H](CCCNC(=N)N)NC(=O)[C@H](CCC(N)=O)NC(=O)[C@@H](NC(=O)[C@H](C)NC(=O)[C@@H]1CSSC[C@H](NC(=O)[C@@H](N)CCCCNC(=O)CC[C@H](NC(=O)CC[C@H](NC(=O)CCCCCCCCCCCCCCCCCCC(=O)O)C(=O)O)C(=O)O)C(=O)N[C@@H](CC(N)=O)C(=O)N[C@@H]([C@@H](C)O)C(=O)N[C@@H](C)C(=O)N[C@@H]([C@@H](C)O)C(=O)N1)[C@@H](C)O)C(=O)N1CCC[C@H]1C(=O)N[C@@H](CO)C(=O)N[C@@H](CO)C(=O)N[C@H](C(=O)N[C@@H](CC(N)=O)C(=O)N[C@H](C(=O)NCC(=O)N[C@@H](CO)C(=O)N[C@@H](CC(N)=O)C(=O)N[C@H](C(=O)N1CCC[C@H]1C(N)=O)[C@@H](C)O)C(C)C)[C@@H](C)O, also called 13; compound 13)
4 | 1.16 nM | K([γGlu-γGlu-C20 diacid])CNTATCATQRLAEFLRHSSPNFGAIPSSTNVGSRTY-NH2 (disulfide 2-7; N-terminus assumed; SMILES CC[C@H](C)[C@H](NC(=O)[C@H](C)NC(=O)CNC(=O)[C@H](Cc1ccccc1)NC(=O)[C@H](CC(N)=O)NC(=O)[C@@H]1CCCN1C(=O)[C@H](CO)NC(=O)[C@H](CO)NC(=O)[C@H](Cc1c[nH]cn1)NC(=O)[C@H](CCCNC(=N)N)NC(=O)[C@H](CC(C)C)NC(=O)[C@H](Cc1ccccc1)NC(=O)[C@H](CCC(=O)O)NC(=O)[C@H](C)NC(=O)[C@H](CC(C)C)NC(=O)[C@H](CCCNC(=N)N)NC(=O)[C@H](CCC(N)=O)NC(=O)[C@@H](NC(=O)[C@H](C)NC(=O)[C@@H]1CSSC[C@H](NC(=O)[C@@H](N)CCCCNC(=O)CC[C@H](NC(=O)CC[C@H](NC(=O)CCCCCCCCCCCCCCCCCCC(=O)O)C(=O)O)C(=O)O)C(=O)N[C@@H](CC(N)=O)C(=O)N[C@@H]([C@@H](C)O)C(=O)N[C@@H](C)C(=O)N[C@@H]([C@@H](C)O)C(=O)N1)[C@@H](C)O)C(=O)N1CCC[C@H]1C(=O)N[C@@H](CO)C(=O)N[C@@H](CO)C(=O)N[C@H](C(=O)N[C@@H](CC(N)=O)C(=O)N[C@H](C(=O)NCC(=O)N[C@@H](CO)C(=O)N[C@@H](CCCNC(=N)N)C(=O)N[C@H](C(=O)N[C@@H](Cc1ccc(O)cc1)C(N)=O)[C@@H](C)O)C(C)C)[C@@H](C)O, also called 89; compound 89)
5 | 0.633 nM | K([γGlu-γGlu-C20 diacid])CNTATCATQRLAEFLRHSSPNFGAIPSSTNVGHNTY-NH2 (disulfide 2-7; N-terminus assumed; SMILES CC[C@H](C)[C@H](NC(=O)[C@H](C)NC(=O)CNC(=O)[C@H](Cc1ccccc1)NC(=O)[C@H](CC(N)=O)NC(=O)[C@@H]1CCCN1C(=O)[C@H](CO)NC(=O)[C@H](CO)NC(=O)[C@H](Cc1c[nH]cn1)NC(=O)[C@H](CCCNC(=N)N)NC(=O)[C@H](CC(C)C)NC(=O)[C@H](Cc1ccccc1)NC(=O)[C@H](CCC(=O)O)NC(=O)[C@H](C)NC(=O)[C@H](CC(C)C)NC(=O)[C@H](CCCNC(=N)N)NC(=O)[C@H](CCC(N)=O)NC(=O)[C@@H](NC(=O)[C@H](C)NC(=O)[C@@H]1CSSC[C@H](NC(=O)[C@@H](N)CCCCNC(=O)CC[C@H](NC(=O)CC[C@H](NC(=O)CCCCCCCCCCCCCCCCCCC(=O)O)C(=O)O)C(=O)O)C(=O)N[C@@H](CC(N)=O)C(=O)N[C@@H]([C@@H](C)O)C(=O)N[C@@H](C)C(=O)N[C@@H]([C@@H](C)O)C(=O)N1)[C@@H](C)O)C(=O)N1CCC[C@H]1C(=O)N[C@@H](CO)C(=O)N[C@@H](CO)C(=O)N[C@H](C(=O)N[C@@H](CC(N)=O)C(=O)N[C@H](C(=O)NCC(=O)N[C@@H](Cc1c[nH]cn1)C(=O)N[C@@H](CC(N)=O)C(=O)N[C@H](C(=O)N[C@@H](Cc1ccc(O)cc1)C(N)=O)[C@@H](C)O)C(C)C)[C@@H](C)O, also called 87; compound 87)
6 | 0.75 nM | K([γGlu-γGlu-C20 diacid])CNTATCATQRLAEFLRHSSPNFGAIPSSTNVGRNTY-NH2 (disulfide 2-7; N-terminus assumed; SMILES CC[C@H](C)[C@H](NC(=O)[C@H](C)NC(=O)CNC(=O)[C@H](Cc1ccccc1)NC(=O)[C@H](CC(N)=O)NC(=O)[C@@H]1CCCN1C(=O)[C@H](CO)NC(=O)[C@H](CO)NC(=O)[C@H](Cc1c[nH]cn1)NC(=O)[C@H](CCCNC(=N)N)NC(=O)[C@H](CC(C)C)NC(=O)[C@H](Cc1ccccc1)NC(=O)[C@H](CCC(=O)O)NC(=O)[C@H](C)NC(=O)[C@H](CC(C)C)NC(=O)[C@H](CCCNC(=N)N)NC(=O)[C@H](CCC(N)=O)NC(=O)[C@@H](NC(=O)[C@H](C)NC(=O)[C@@H]1CSSC[C@H](NC(=O)[C@@H](N)CCCCNC(=O)CC[C@H](NC(=O)CC[C@H](NC(=O)CCCCCCCCCCCCCCCCCCC(=O)O)C(=O)O)C(=O)O)C(=O)N[C@@H](CC(N)=O)C(=O)N[C@@H]([C@@H](C)O)C(=O)N[C@@H](C)C(=O)N[C@@H]([C@@H](C)O)C(=O)N1)[C@@H](C)O)C(=O)N1CCC[C@H]1C(=O)N[C@@H](CO)C(=O)N[C@@H](CO)C(=O)N[C@H](C(=O)N[C@@H](CC(N)=O)C(=O)N[C@H](C(=O)NCC(=O)N[C@@H](CCCNC(=N)N)C(=O)N[C@@H](CC(N)=O)C(=O)N[C@H](C(=O)N[C@@H](Cc1ccc(O)cc1)C(N)=O)[C@@H](C)O)C(C)C)[C@@H](C)O, also called 88; compound 88)
